Source: article PMC3637437
“And” between values parts separate entries of the source, which are not always exact repeats. Identical values can stand only once.

Tests used:
Assay in all cases: native gel or EMSA; 1 ug of each purified consensus Env gp140 on a NativePAGE native gel, silver stained
[1] = molecular target: Consensus C Env gp140 trimer (bacteriophage)
[2] = molecular target: Con M Env gp140 trimer (HIV-1 group M consensus) (bacteriophage)
[3] = molecular target: Consensus A Env gp140 trimer (bacteriophage)
[4] = molecular target: Consensus B Env gp140 trimer (bacteriophage)
[5] = molecular target: Consensus E Env gp140 trimer (bacteriophage)

In the case of Consensus C Env gp140 trimer, the stoichiometry N [1] is reported as 3 and 2.

For “Con M Env gp140 trimer (HIV-1 group M consensus)”, the stoichiometry N [2] was 3 and 2.

For Consensus A Env gp140 trimer, the stoichiometry N [3] was 3.

Consensus B Env gp140 trimer gave a stoichiometry N [4] of 3.

With Consensus E Env gp140 trimer the stoichiometry N [5] was 3 and 2.
